# From patent US20180291110A1 (Hoffmann-La Roche, published 2018)
# Residue numbers refer to the chain shown, from its start.
# B1: 2/99 VH12/VL14 (antibody, V domains shown)
# VH: QVQLQESGPGLVKPSETLSLTCTVSGFSLSSYAMSWIRQPPGKGLEWIGYIWSGGSTDYNPSLKSRVTISVDTSKNQFSLKLSSVTAADTAVYYCARRYGTSYPDYGDANGFDPWGQGTLVTVSS
# VL: DIVMTQSPDSLAVSLGERATINCKSSQSISSYLSWYQQKPGQRPKLLIYRASTLASGVPDRFSGSGSGTDFTLTISSLQAEDVAVYYCQQSYSSSNVDNTFGGGTKVEIK
# B2: 2/99 VH13/VL14 (antibody, V domains shown)
# VH: B1 VH with F78V
# VL: B1 VL
# B3: 2/99 VH15/VL14 (antibody, V domains shown)
# VH: QQLQESGPGLVKPSETLSLTCTVSGFSLSSYAMSWVRQPPGKGLEWIGYIWSGGSTDYNPSLKSRVTISVDTSKNQVSLKLSSVTAADTAVYYCARRYGTSYPDYGDANGFDPWGQGTLVTVSS
# VL: B1 VL
# B4: 2/99 VH16/VL14 (antibody, V domains shown)
# VH: B3 VH with Q116P
# VL: B1 VL
# B5: 2/99 VH17/VL14 (antibody, V domains shown)
# VH: B3 VH with V70K, Q116P
# VL: B1 VL
# B6: 2/99 VH18/VL14 (antibody, V domains shown)
# VH: B1 VH with E16Q, P40H, N60A
# VL: B1 VL
# B7: 2/99 VH19/VL14 (antibody, V domains shown)
# VH: B3 VH with Q2S, L3M, E15Q, V36I, P39H, N59A, V77F
# VL: B1 VL
# B8: 2/99 VH20/VL14 (antibody, V domains shown)
# VH: B3 VH with Q2S, L3M, E15Q, V36I, P39H, N59A
# VL: B1 VL
# B9: 2/99 VH21/VL14 (antibody, V domains shown)
# VH: B3 VH with Q2S, L3M, E15Q, V36I, P39H, N59A, P60S, S61W, L62A
# VL: B1 VL
# B10: 2/99 VH22/VL14 (antibody, V domains shown)
# VH: B3 VH with Q2S, L3M, E15Q, P39H, N59A, P60S, S61W, L62A
# VL: B1 VL
# B11: 2/99 VH23-DANG/VL14 (antibody, V domains shown)
# VH: QSMQESGPGLVKPSQTLSLTCTVSGFSLSSYAMSWIRQHPGKGLEWIGYIWSGGSTDYASWAKSRVTISKTSTTVSLKLSSVTAADTAVYYCARRYGTSYPDYGDANGFDPWGQGTLVTVSS
# VL: B1 VL
# B12: 2/99 VH1/VL15 (antibody, V domains shown)
# VH: VQLVETGGGLIQPGGSLRLSCAASGFSLSSYAMSWVRQAPGKGLEWVGYIWSGGSTDYADSVKGRFTISRDNSKNTLYLQMNSLRAEDTAVYYCARRYGTSYPDYGDANGFDPWGQGTLVTVSS
# VL: B1 VL with S34I, R43P, S91A
# B13: 2/99 VH2/VL15 (antibody, V domains shown)
# VH: EVQLVETGGGLIQPGGSLRLSCAASGFSLSSYAMSWVRQAPGKGLEWVGYIWSGGSTDYADSVKGRFTISRDNSKNTLYLQMNSLRAEDTAVYYCARRYGTSYPDYGDANGFDPWGQGTLVTVSS
# VL: B1 VL with S34I, R43P, S91A
# B14: 2/99 VH5/VL15 (antibody, V domains shown)
# VH: B12 VH with V1Q, Q2S, L3M, V4E, Q116P
# VL: B1 VL with S34I, R43P, S91A
# B15: 2/99 VH6/VL15 (antibody, V domains shown)
# VH: B12 VH with V1Q, V47I
# VL: B1 VL with S34I, R43P, S91A
# B16: 2/99 VH7/VL15 (antibody, V domains shown)
# VH: B12 VH with V1Q, V47I, D60S, S61W, V62A
# VL: B1 VL with S34I, R43P, S91A
# B17: 2/99 VH8/VL15 (antibody, V domains shown)
# VH: QQLVETGGGLIQPGGSLRLSCAASGFSLSSYAMSWVRQAPGKGLEWIGYIWSGGSTDYASWAKGRFTISKTSTTLYLQMNSLRAEDTAVYYCARRYGTSYPDYGDANGFDPWGQGTLVTVSS
# VL: B1 VL with S34I, R43P, S91A
# B18: 2/99 VH9/VL15 (antibody, V domains shown)
# VH: B12 VH with V1Q, V4L, T6S, I11V, S27T, L28F, R96K
# VL: B1 VL with S34I, R43P, S91A
# B19: 2/99 VH11/VL15 (antibody, V domains shown)
# VH: B12 VH with V1Q, V4L, T6S, I11V
# VL: B1 VL with S34I, R43P, S91A
# B20: 2/99 VH12/VL15 (antibody, V domains shown)
# VH: B1 VH
# VL: B1 VL with S34I, R43P, S91A
# B21: 2/99 VH13/VL15 (antibody, V domains shown)
# VH: B1 VH with F78V
# VL: B1 VL with S34I, R43P, S91A
# B22: 2/99 VH15/VL15 (antibody, V domains shown)
# VH: B3 VH
# VL: B1 VL with S34I, R43P, S91A
# B23: 2/99 VH16/VL15 (antibody, V domains shown)
# VH: B3 VH with Q116P
# VL: B1 VL with S34I, R43P, S91A
# B24: 2/99 VH17/VL15 (antibody, V domains shown)
# VH: B3 VH with V70K, Q116P
# VL: B1 VL with S34I, R43P, S91A
# B25: 2/99 VH18/VL15 (antibody, V domains shown)
# VH: B1 VH with E16Q, P40H, N60A
# VL: B1 VL with S34I, R43P, S91A
# B26: 2/99 VH19/VL15 (antibody, V domains shown)
# VH: B3 VH with Q2S, L3M, E15Q, V36I, P39H, N59A, V77F
# VL: B1 VL with S34I, R43P, S91A
# Molecular target: T1, human transferrin receptor (recombinant, for surface plasmon resonance) (human, UniProt P02786 89-760)
# T1 construct: also called huTfR; human transferrin receptor-biotinylated
# T1 sequence (P02786 89-760 limits assumed): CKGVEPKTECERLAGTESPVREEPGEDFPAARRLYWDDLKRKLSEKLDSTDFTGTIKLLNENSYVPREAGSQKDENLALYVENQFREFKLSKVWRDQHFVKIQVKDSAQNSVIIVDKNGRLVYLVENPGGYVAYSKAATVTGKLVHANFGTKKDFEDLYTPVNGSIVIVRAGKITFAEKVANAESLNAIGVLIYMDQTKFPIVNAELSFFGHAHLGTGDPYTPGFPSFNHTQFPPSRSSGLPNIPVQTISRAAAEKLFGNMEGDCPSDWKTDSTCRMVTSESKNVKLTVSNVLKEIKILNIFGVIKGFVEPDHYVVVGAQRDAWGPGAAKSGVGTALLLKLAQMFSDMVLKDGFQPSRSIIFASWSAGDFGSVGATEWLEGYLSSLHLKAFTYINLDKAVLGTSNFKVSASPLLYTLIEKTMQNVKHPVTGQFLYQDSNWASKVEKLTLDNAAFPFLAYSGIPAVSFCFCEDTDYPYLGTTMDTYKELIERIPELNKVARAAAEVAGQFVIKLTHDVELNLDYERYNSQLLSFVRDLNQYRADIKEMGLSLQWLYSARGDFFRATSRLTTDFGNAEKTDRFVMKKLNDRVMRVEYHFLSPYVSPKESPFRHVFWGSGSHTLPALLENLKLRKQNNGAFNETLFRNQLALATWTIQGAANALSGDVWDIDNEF
# Test: SPR 25C
binder,measurement,value
B1,koff,0.00546 s⁻¹
B2,koff,0.00222 s⁻¹
B3,koff,0.00194 s⁻¹
B4,koff,0.00175 s⁻¹
B5,koff,0.00105 s⁻¹
B6,koff,0.003 s⁻¹
B7,koff,0.00796 s⁻¹
B8,koff,0.00239 s⁻¹
B9,koff,0.00103 s⁻¹
B10,koff,0.00112 s⁻¹
B11,koff,0.000733 s⁻¹
B12,koff,0.00669 s⁻¹
B13,koff,0.00638 s⁻¹
B14,koff,0.00637 s⁻¹
B15,koff,0.00421 s⁻¹
B16,koff,0.00273 s⁻¹
B17,koff,0.00181 s⁻¹
B18,koff,0.00739 s⁻¹
B19,koff,0.00709 s⁻¹
B20,koff,0.00776 s⁻¹
B21,koff,0.00711 s⁻¹
B22,koff,0.00603 s⁻¹
B23,koff,0.00477 s⁻¹
B24,koff,0.00156 s⁻¹
B25,koff,0.00758 s⁻¹
B26,koff,0.001 s⁻¹
